Assay results published in publication PMC7335327.

Key:
[1] = molecular target: DnaB^F102C (Escherichia coli K12) (UniProt P0ACB0)
DnaB (Escherichia coli) = DnaB (Escherichia coli) (UniProt P0ACB0); conditions: cited from earlier work
[2] = molecular target: biotinylated clamp loader complex ^bioχψτ3δδ’ (Escherichia coli K12) (UniProt P28905); assay: SPR
[3] = molecular target: DnaB helicase, wild type (DnaB^wt) (Escherichia coli K12) (UniProt P0ACB0)
[4] = molecular target: DnaB^F102C (Escherichia coli K12) (UniProt P0ACB0); assay: cross-linking

DnaGC, C-terminal helicase-binding domain of DnaG primase (domain or fragment)
fold less efficient interaction than with wild-type DnaB [1]: 200 fold

DnaG (from UniProt P0ABS5)
Kd (DnaB (Escherichia coli)): 2800 nM

DnaB^wt•DnaGC complex (from UniProt P0ACB0 1-471)
Kd [2]: 2.6 nM

DnaGC^R568C/C492L (domain or fragment)
fold weaker interaction than wild-type DnaGC [3]: 30 fold
disulfide crosslinking efficiency [4]: 100%
